Experimental data taken from paper PMC4609964, “Combination of six enzymes of a marine Novosphingobium converts the stereoisomers of β-O-4 lignin model dimers into the respective monomers” (Scientific Reports, 2015).

Columns and labels:
[1] = test system: COc1cc(C(=O)C(CO)Oc2ccccc2OC)ccc1O; experiment: purified protein; details: GSH co-substrate, optimal pH 7−8, 40 °C, 1:1 β(R)/β(S) mixture (acts on β(R))
[2] = test system: COc1ccc(C(=O)C(CO)Oc2ccccc2OC)cc1OC; experiment: purified protein; details: GSH co-substrate, optimal pH 7−8, 40 °C (determined with MPHPV)
[3] = biological target: T1, GST6 (Novosphingobium sp. MBES04, UniProt A0A0S6WVQ1); experiment: chiral HPLC of glutathione removal to GHP; assay type: biochemical; details: […] °C, […] h, both conjugates (formed by GST4 and by GST5)
T1 construct: gene MBENS4_2530; N-terminal His6 tag (pRSET A), E. coli BL21(DE3), His-tag resin purified
T1 sequence (A0A0S6WVQ1 1-283): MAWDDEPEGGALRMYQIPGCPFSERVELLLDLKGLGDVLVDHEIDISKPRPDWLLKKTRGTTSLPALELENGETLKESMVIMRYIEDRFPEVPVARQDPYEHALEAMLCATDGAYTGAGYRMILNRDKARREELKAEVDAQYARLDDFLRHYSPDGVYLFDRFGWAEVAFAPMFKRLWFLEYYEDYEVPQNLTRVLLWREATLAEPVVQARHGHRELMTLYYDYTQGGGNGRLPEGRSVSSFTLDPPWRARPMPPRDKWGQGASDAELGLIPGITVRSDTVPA

[4] = biological target: T2, GST3 (Novosphingobium sp. MBES04, UniProt A0A0S6WZT0); experiment: chiral HPLC of glutathione removal to GHP; assay type: biochemical; details: glutathione 2.0 mM; 25 °C, 16 h; both conjugates (formed by GST4 and by GST5)
T2 construct: gene MBENS4_2527; N-terminal His6 tag (pRSET A), E. coli BL21(DE3), His-tag resin purified
T2 sequence (A0A0S6WZT0 1-226): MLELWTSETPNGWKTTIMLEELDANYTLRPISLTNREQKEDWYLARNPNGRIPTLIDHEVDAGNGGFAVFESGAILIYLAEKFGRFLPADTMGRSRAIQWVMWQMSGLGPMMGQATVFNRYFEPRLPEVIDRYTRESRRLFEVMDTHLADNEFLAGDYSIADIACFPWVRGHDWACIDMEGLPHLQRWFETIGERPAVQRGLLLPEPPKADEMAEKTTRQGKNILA

[5] = biological target: T2, GST3; experiment: conventional GST assay (specific activity); assay type: biochemical; details: glutathione co-substrate
[6] = test system: COc1ccc(C(O)C(CO)Oc2ccccc2OC)cc1OC; experiment: purified protein; details: NAD cofactor
[7] = substrate: COc1cc(C(=O)C(CO)Oc2ccccc2OC)ccc1O; experiment: purified protein; assay type: biochemical, Novosphingobium sp. MBES04; details: GSH co-substrate, optimal pH 9, 35 °C, 1:1 β(R)/β(S) mixture (acts on β(S))
[8] = substrate: COc1ccc(C(=O)C(CO)Oc2ccccc2OC)cc1OC; experiment: purified protein; assay type: biochemical, Novosphingobium sp. MBES04; details: GSH co-substrate, optimal pH 9, 35 °C (determined with MPHPV)
[9] = optimal conditions (pH 9, 15 °C)
[10] = optimal conditions (pH 9–10, 30 °C)

GST5 (Novosphingobium sp. MBES04)
Km [1]: 290 µM
kcat [1]: 0.0583 s⁻¹
kcat/Km [1]: 200 M⁻¹ s⁻¹
Km [2]: 780 µM
kcat [2]: 0.158 s⁻¹
kcat/Km [2]: 200 M⁻¹ s⁻¹

COc1cc(C(=O)C(CO)SC[C@H](NC(=O)CC[C@H](N)C(=O)O)C(=O)NCC(=O)O)ccc1O (stereo partly drawn) [GS-GHP]
chiral HPLC of glutathione removal to GHP [3]: the removal of glutathione from both glutathione conjugates of GHP produced by GST4 and GST5
chiral HPLC of glutathione removal to GHP [4]: the removal of glutathione from both glutathione conjugates of GHP produced by GST4 and GST5

O=[N+]([O-])c1ccc(Cl)c([N+](=O)[O-])c1 [CDNB]
conventional GST assay (specific activity) [5]: the activity of GST3 towards 1-chloro-2,4-dinitrobenzene (CDNB)

SDR3 (Novosphingobium sp. MBES04)
Km [6, 9]: 1500 µM
kcat [6, 9]: 0.065 s⁻¹
kcat/Km [6, 9]: 41.7 M⁻¹ s⁻¹

SDR5 (Novosphingobium sp. MBES04)
Km [6, 10]: 1100 µM
kcat [6, 10]: 23.3 s⁻¹
kcat/Km [6, 10]: 21700 M⁻¹ s⁻¹

B1: GST4 (Novosphingobium sp. MBES04) (protein)
chain: MLTLYSFGPGANSLKPLLALYEKGLEFTPRFVDPTKFEHHEEWFKKINPRGQVPALDHDGNVITESTVICEYLEDAFPDAPRLRPTDPVQIAEMRVWTKWVDEYFCWCVSTIGWERGIGPMARALSDEEFEEKVKRIPIPEQQAKWRSARAGFPKEVLDEEMRKIRVSIDRLEKRLSESTWLAGEDYTLADICNFAIANGMEKGFDDIVNTAATPNLVAWIERINARPACIEMFAKSKSEFAARKPFAKSEEQAQA
notes: N-terminal His6 tag (pRSET A), E. coli BL21(DE3), His-tag resin purified
Km [7]: 470 µM
kcat [7]: 0.75 s⁻¹
kcat/Km [7]: 1580 M⁻¹ s⁻¹
Km [8]: 550 µM
kcat [8]: 0.3 s⁻¹
kcat/Km [8]: 533 M⁻¹ s⁻¹
